Source: patent US20140086913A1 (Gilead, published 2014)

T1: human DDR2 stably expressed on HEK293 cells (human, UniProt Q16832 22-855)
T1 construct: whole, on cells; also called hDDR2
T1 sequence (looked up): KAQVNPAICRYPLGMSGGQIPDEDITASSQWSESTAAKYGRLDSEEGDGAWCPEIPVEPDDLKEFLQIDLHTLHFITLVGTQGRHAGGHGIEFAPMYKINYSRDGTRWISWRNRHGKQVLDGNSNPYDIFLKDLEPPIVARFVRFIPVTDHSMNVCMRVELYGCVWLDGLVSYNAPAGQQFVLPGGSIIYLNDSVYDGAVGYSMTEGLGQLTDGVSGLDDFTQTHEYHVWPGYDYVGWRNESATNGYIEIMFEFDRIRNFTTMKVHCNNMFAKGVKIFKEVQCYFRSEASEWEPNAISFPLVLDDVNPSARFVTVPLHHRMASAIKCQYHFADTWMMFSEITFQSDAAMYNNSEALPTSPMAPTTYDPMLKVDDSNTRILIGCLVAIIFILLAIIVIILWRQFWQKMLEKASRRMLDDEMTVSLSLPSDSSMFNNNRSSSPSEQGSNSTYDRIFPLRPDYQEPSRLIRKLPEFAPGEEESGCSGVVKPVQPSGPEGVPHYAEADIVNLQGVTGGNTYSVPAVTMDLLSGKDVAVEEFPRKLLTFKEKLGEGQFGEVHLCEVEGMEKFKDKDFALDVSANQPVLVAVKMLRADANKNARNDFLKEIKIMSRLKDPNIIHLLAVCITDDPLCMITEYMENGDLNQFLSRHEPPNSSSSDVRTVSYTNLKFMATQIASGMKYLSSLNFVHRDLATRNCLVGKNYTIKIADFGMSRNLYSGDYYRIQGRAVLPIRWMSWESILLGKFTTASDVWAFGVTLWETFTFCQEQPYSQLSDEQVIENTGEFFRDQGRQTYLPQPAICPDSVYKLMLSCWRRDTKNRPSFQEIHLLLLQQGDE

B1: AB2092 (antibody, V domains shown)
VH: QIQLVQSGPELKKSGETVKISCKASGYTFTDYGMNWVKQAPGKGLKWMGWINTYTGKSTYADDFKGRFAFSLETSASTTYLQITNLKNEDMATYFCARWADYFGSSYLFASWGQGTLVTVSA
VL: DVLMTQTPLSLPVSLGDQASISCRSSQSIVHSDGNTYLEWYLQKPGQSPKLLIYKVSNRFSGVPDRFSGSGSGTDFTLKISRVEAEDLGIYYCFQGSHVPWTFGGGTKLEIKR
notes: mouse hybridoma mAb
B2: AB2004 (antibody, V domains shown)
VH: DVHLQESGPDLVKPSQSLSLTCTVTDYSITSGYGWHWIRQFPGNKLEWMGYIHYGGSTKYNSSLKSRISITRDTSKNQFFLQLKSVTTDDTGTYYCATSGNYGFAYWGQGTLVTVSA
VL: DIVLTQSPTSLAVSLGQRATMSCRASESVDDYGTSFMHWYQQKPGQPPKLLIYRASNLESGIPARFSGSGSRADFTLSINPVEPDDVATYYCQQSNEDPFTFGSGTKLEIKR
notes: mouse hybridoma mAb
B3: AB2010 (antibody, V domains shown)
VH: QVQLKQSGPGLVQPSQSLSITCTVSGFSFTGYGIHWVRQSPGKGLEWLGVIWSGGITDYNAAFISRLSISMDSSKGQVFFKMNSLQANDTAIYYCARRSTTVVADYAMDYWGQGTSVTVSS
VL: SIVMTQTPKFLLVSAGDRVTITCKASQSVSNDVAWYQQKPGQSPKLLIYYASNRYTGVPDRFTGSGYGTDFTFTINTVQAEDLAVYFCQQDYTSPLTFGAGTKLELKR
notes: mouse hybridoma mAb
B4: AB2078 (antibody, V domains shown)
VH: EIQLQQSGPELVNPGASVKVSCKASGYSFTDYNMYWVKQSHGKSLEWIGYIDPYNGGTSYNQKFKGKATLTVDKSSSTAFMHLNSLTSEDSAVYYCAREYYGSRLWYFDVWGAGTAVTVSS
VL: DIVMTQSPSSLAMSVGQKVTMSCKSSQSLLNRNNQKNYLAWYQQKPGQSPKLLVYFASTRESGVPDRFIGSGSGTDFTLTLSSVRAEDLAENFCQQHYSTPFTFGSGTRLEIKR
notes: mouse hybridoma mAb
B5: AB2039 (antibody, V domains shown)
VH: EVQLVESGGGLVQPGGSLKFSCAASGFTFSSYGMSWVRQTPDKRLELVAIINSHGFSTYYPDSVKGRFTISRDNAKNTLYLQMSSLKSEDTAIYYCARGGYGNYGMDYWGQGTSVTVSS
VL: DIVLTQSPASLAVSLGQRATISCRASESVDSYGNSFMHWYQQKVGQPPKLLIFRASNIESGIPARFSGSGSRTDFTLTINSVEADDVATYYCQQSNEAPYTFGGGTKLEIKR
notes: mouse hybridoma mAb; also called AB0039
B6: AB2041 (antibody, V domains shown)
VH: QVQLHQSGSELAKPGASVKMSCKASGYIFTTYWIHWLKQRPGQGLEWIGFINPDTDYTEYNQKFKDKATLTADKSSNTAYVQLSSLTSEDSAVYYCARGNYGYDGLVYWGLGTLVTVSA
VL: SIVMTQTPKFLLVSAGDRVTITCKASQSVSTDVAWYQQKPGQSPKLLIYYASNRYTGVPDRFTGSGYGTDFTFTISTVQAEDLAVYFCQQDYNSYTFGGGTKLEIKR
notes: mouse hybridoma mAb

Target: T1, human DDR2 stably expressed on HEK293 …
Experiment: flow cytometry, HEK293/hDDR2
Outline: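 Anti-DDR1 mAbs or isotype controls (2 μg per 1×10⁶ cells) were incubated with the stably transfected HEK293 cells at 4 °C for 1 hr, then detected with anti-IgG-PE at 4 °C for 1 hr. Binding was read as flow-cytometry MFI, with vector-only HEK293 background subtracted.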

Row | MFI [MFI] | Binder
1 | 133 | B1
2 | 289 | B2
3 | 647 | B3
4 | 380 | B4
5 | 143 | B5
6 | 265 | B6

Target: DDR1 endogenously expressed on human cancer cell lines (T47D, HCT-116, A431) (human) (UniProt Q08345)
Experiment: flow cytometry, HCT116 cells

Row | MFI [MFI] | Binder
7 | 1310 | B1
8 | 1490 | B2
9 | 1730 | B3
10 | 1480 | B4
11 | 1490 | B5
12 | 1270 | B6

Target: T2, human ECD-DDR1-His protein (human, UniProt Q08345 21-416)
T2 construct: also called huDDR1-ECD-His; DDR1ECD-6Xhis; not shown: His tag
Experiment: ELISA, coated antigen, apparent KD
Outline: (§1)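 Plates coated overnight at 4° C with 2 μg/mL purified tagged DDR1 ECD protein, BSA-blocked; serially diluted murine anti-DDR1 mAbs bound 1 hr at room temperature, detected with anti-mouse IgG-HRP and TMB (OD 450). Apparent KD taken as C-parameter of 4-parameter logistic fit of OD versus antibody concentration.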

T2 sequence (Q08345 21-416): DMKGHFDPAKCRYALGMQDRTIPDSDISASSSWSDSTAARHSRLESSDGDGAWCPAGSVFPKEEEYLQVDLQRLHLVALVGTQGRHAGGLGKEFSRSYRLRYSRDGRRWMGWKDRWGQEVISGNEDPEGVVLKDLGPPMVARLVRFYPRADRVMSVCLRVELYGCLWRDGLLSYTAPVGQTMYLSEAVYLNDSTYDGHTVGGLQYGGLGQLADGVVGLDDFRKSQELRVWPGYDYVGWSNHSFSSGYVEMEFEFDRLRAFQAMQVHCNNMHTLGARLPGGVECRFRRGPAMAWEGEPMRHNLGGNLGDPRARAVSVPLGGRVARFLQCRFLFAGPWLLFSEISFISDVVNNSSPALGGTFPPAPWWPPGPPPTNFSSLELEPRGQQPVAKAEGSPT

Row | Kd [nM] | Binder
13 | 0.275 | B1
14 | 0.181 | B2
15 | 0.398 | B3
16 | 0.554 | B4
17 | 0.205 | B5
18 | 0.617 | B6

Target: T3, DDR1ECD-Fc (R&D Systems, Catalog #2396-DR) (human, UniProt Q08345 21-416)
T3 construct: range 21-416; construct as described for the bought immunogen; also called human ECD-DDR1-Fc; Fc-ECD-DR1; not shown: human IgG1, Pro100-Lys330
Experiment: ELISA, coated antigen, apparent KD
Outline: as §1

T3 sequence (Q08345 other isoform, or with tags, fused parts or gaps limits assumed): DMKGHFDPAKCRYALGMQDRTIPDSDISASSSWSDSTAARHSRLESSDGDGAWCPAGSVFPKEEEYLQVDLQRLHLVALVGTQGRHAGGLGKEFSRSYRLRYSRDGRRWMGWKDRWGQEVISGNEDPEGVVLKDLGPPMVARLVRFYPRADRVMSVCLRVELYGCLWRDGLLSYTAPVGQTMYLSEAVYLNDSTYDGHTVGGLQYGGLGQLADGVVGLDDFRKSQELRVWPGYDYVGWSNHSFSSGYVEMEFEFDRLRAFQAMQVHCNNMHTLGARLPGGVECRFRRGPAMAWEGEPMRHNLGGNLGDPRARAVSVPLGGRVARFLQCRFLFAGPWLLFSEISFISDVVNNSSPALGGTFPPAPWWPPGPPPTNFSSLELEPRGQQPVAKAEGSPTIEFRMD

Row | Kd [nM] | Binder
19 | 0.287 | B1
20 | 0.154 | B2
21 | 0.431 | B3
22 | 0.374 | B4
23 | 0.346 | B5
24 | 0.561 | B6

Target: DDR1 with a ProLink Tag (PK) in engineered U20S cells (DiscoveRx), Q08345
Experiment: cell-based or functional assay

Row | Mean EC50, DDR1 Tyr513 phosphorylation assay (U20S) [nM] | Binder
25 | 2.45 | B1
26 | 1.85 | B2
27 | 7.6 | B3
28 | 1.1 | B5
29 | 2.65 | B6

Target: DDR1 stably over-expressed in HCT-116 tumor cells, Q08345
Experiment: cell-based or functional assay

Row | EC50, NFkB luciferase reporter (HCT-116, collagen II) [nM] | EC90, NFkB luciferase reporter (HCT-116, collagen II) [nM] | EC50, collagen-mediated relocalization of DDR1 (HCT-116) [nM] | Binder
30 | 1.13 | 4.73 |  | B1
31 | 3.7 | 6.95 | 1.4 | B2
32 | 1.63 | 4.61 | 0.45 | B5
33 | 1.12 | 4.17 | 2.2 | B6

Target: human DDR1 (isoform B) stably expressed on HEK293 cells (human) (UniProt Q08345)
Experiment: flow cytometry, HEK293/hDDR1

Sequence of human DDR1 (isoform B) stably expressed on HEK293 cells (human) (Q08345 19-913): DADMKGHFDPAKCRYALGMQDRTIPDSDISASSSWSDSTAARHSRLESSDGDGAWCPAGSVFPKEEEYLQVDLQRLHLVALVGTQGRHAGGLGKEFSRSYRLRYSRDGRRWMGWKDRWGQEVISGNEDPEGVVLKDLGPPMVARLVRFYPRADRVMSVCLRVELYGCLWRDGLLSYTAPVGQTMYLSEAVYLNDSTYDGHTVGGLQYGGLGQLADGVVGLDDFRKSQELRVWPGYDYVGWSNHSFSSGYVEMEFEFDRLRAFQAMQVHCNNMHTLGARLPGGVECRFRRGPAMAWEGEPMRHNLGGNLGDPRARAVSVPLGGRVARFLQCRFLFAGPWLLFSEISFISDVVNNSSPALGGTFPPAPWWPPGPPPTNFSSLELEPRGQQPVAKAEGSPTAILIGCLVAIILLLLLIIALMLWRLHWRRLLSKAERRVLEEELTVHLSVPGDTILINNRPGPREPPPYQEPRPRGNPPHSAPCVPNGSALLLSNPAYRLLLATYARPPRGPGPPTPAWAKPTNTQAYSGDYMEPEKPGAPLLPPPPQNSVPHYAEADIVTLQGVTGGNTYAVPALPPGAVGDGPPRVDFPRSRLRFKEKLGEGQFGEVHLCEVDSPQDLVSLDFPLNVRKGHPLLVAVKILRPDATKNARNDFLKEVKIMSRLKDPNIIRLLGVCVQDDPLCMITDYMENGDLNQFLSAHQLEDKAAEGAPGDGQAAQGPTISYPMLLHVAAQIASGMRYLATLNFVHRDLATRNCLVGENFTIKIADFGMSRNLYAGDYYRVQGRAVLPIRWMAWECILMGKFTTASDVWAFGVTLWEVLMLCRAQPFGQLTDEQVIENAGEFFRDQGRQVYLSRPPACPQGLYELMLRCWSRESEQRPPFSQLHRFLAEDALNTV

Row | MFI [MFI] | Binder
34 | 6020 | B1
35 | 14400 | B2
36 | 17800 | B3
37 | 7490 | B4
38 | 8020 | B5
39 | 12500 | B6

Target: DDR1 endogenously expressed on human cancer cell lines (T47D, HCT-116, A431) (human) (UniProt Q08345)
Experiment: flow cytometry, T47D cells

Row | MFI [MFI] | Binder
40 | 3880 | B1
41 | 5990 | B2
42 | 6730 | B3
43 | 4750 | B4
44 | 4460 | B5
45 | 2210 | B6
